Assay [1] concerns the target T1, human DLL4, full length, on cells (human, UniProt Q9NR61 27-685).
T1 construct: also called huDLL4 cells; human DLL4-293G
Kind of assay: FACS, DLL4 cells. The protocol: Stable cell lines overexpressing cell-surface DLL4 were harvested from tissue culture flasks, washed four times and resuspended in phosphate buffered saline (PBS) containing 1% bovine serum albumin and 1 mM CaCl₂ (FACS buffer). 1.5×10⁵ cells were incubated with antibodies at various concentrations in FACS buffer for 60 minutes on ice. […] Following an incubation on ice (4° C., 60 minutes), cells were washed three times and resuspended in FACS buffer. Fluorescence was measured using a Becton Dickinson FACSCalibur-HTS (Becton Dickinson, San Jose, Calif., US). Data were analyzed using Graphpad Prism software and EC₅₀ values were reported as the concentration of antibody to achieve 50% of maximal DLL4 antibodies binding to DLL4 expressing cells.
The good binder variants, as determined by binding ELISA, were assessed by Biacore (Example 1.1) concurrently with cell based assay screens. The KD for human DLL4 was similar for all variants (see, Biacore, KD in Table 18, below).

Assay [2] addresses T2, human DLL4 extracellular domain (human, UniProt Q9NR61 27-529).
T2 construct: purified recombinant ECD; biotin-labelled or 6xHis-tagged depending on the assay; also called huDLL4 ECD; hu DLL4 ECD
The experiment in a line: SPR (Biacore). The protocol:
Binding of DLL4 antibodies to a purified recombinant DLL4 extracellular domain (ECD) was determined by surface plasmon resonance-based measurements with a Biacore® instrument (either a Biacore 2000, Biacore 3000, or Biacore T100; GE Healthcare, Piscataway, N.J., US) using running buffer HBS-EPB (10 mM HEPES [pH 7.4], 150 mM NaCl, 3 mM EDTA, 0.1 mg/ml BSA and 0.005% surfactant P20) at 25° C. For example, approximately 9000 RU of goat anti-human Fc specific polyclonal antibody (Thermo Fisher Scientific Inc., Rockford, Ill., US) diluted in 10 mM sodium acetate (pH 4.5) is directly immobilized across a CMS research grade biosensor chip using a standard amine coupling kit according to manufacturer's instructions and procedures at 25 μg/ml. Unreacted moieties on the biosensor surface were blocked with ethanolamine. For kinetic analysis, rate equations derived from the 1:1 Langmuir binding model were fitted simultaneously to multiple antigen injections (using global fit analysis) with the use of Scrubber 2 (BioLogic Software), Biacore Biaevaluation 4.0.1 software or Biacore T100 Evaluation software. Purified antibodies were diluted in running buffer for capture across goat anti-human Fc reaction surfaces. Antibodies to be captured as a ligand (1 μg/ml) were injected over reaction matrices at a flow rate of 10 μl/min. During the assay, all measurements were referenced against the capture surface alone (i.e., with no captured anti-DLL4 antibody). […] The equilibrium dissociation constant KD (M) of the reaction between antibodies and the target antigen was then calculated from the kinetic rate constants by the following formula: KD=Koff/Kₒₙ. Binding was recorded as a function of time and kinetic rate constants were calculated. In this assay, on-rates as fast as 10⁶ M⁻¹s⁻¹ and off-rates as slow as 10⁻⁶ s⁻¹ could be measured.
The good binder variants, as determined by binding ELISA, were assessed by Biacore (Example 1.1) concurrently with cell based assay screens.
On the technique in general: In SPR one partner is held on a chip, and binding of the other changes the refractive index at the surface.

The target in assay [3] is T1, human DLL4, full length, on cells. Kind of assay: cell-based or functional assay.
For assay [4], the target named is T2, human DLL4 extracellular domain. Kind of assay: competition ELISA vs Notch-1 Fc. The protocol: Plates were then washed 3 times with wash buffer (PBS, 0.05% Tween-20) and blocked with 200 μl/well blocking buffer (D-PBS, 1% BSA, 1 mM CaCl₂, 0.05% Tween-20) for 1 hour at 25° C. While blocking, biotin labeled DLL4 extracellular domain (14 nM) was mixed with antibody (30 pM-66 nM, 3-fold serial dilution in blocking buffer) for 1 hour at 25° C. with shaking. Assay plates were washed after blocking, and incubated with DLL4/antibody mixtures (100 μl/well, 1 hour at 25° C. with shaking). Plates were washed again and 100 μl/well streptavidin conjugated with HRP (Fitzgerald #65R-S104PHRPx, diluted 1:5,000 in blocking buffer) was added for 1 hour at 25° C. with shaking. After a final wash, plates were developed using 100 μl/well substrate (TMB Sigma #T8665), and the reaction was stopped using 100 μl/well 1N HCl, and the absorbance was read at 450 nm. Data were analyzed using Graphpad Prism software and IC₅₀ values were reported as the concentration of antibody to achieve 50% reduction of DLL4 bound to Notch1.
Purified variants were further characterized in human Notch-1 competition ELISAs (Example 1.4), which used a format of plating Notch-1 Fc onto ELISA plates and pre-incubating biotinylated human DLL4 plus titrated antibody. Signal was assessed by free biotinylated DLL4 binding to Notch-1 Fc.
(In general: In an ELISA, binding on a coated surface is turned into a signal by an enzyme label.)

For assay [5] the target is unchanged. The experiment in a line: capture ELISA, biotin-huDLL4 ECD.

T1 sequence (Q9NR61 27-685 limits assumed): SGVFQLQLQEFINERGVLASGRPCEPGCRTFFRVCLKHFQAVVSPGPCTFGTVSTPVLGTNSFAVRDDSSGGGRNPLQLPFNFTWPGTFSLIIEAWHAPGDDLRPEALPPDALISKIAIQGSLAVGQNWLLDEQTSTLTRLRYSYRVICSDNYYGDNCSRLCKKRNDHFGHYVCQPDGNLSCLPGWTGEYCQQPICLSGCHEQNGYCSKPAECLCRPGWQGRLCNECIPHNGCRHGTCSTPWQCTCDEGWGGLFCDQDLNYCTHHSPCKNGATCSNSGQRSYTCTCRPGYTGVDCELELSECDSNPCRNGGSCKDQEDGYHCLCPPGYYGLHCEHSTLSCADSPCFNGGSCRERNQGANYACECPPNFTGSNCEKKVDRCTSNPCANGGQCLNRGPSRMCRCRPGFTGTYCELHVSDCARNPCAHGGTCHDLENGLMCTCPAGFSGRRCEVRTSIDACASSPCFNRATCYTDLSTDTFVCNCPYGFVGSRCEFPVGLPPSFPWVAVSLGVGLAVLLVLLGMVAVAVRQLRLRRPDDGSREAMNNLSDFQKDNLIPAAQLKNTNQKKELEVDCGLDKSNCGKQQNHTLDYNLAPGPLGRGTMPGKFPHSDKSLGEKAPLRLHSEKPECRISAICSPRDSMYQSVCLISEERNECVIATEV
T2 sequence (Q9NR61 27-529 limits assumed): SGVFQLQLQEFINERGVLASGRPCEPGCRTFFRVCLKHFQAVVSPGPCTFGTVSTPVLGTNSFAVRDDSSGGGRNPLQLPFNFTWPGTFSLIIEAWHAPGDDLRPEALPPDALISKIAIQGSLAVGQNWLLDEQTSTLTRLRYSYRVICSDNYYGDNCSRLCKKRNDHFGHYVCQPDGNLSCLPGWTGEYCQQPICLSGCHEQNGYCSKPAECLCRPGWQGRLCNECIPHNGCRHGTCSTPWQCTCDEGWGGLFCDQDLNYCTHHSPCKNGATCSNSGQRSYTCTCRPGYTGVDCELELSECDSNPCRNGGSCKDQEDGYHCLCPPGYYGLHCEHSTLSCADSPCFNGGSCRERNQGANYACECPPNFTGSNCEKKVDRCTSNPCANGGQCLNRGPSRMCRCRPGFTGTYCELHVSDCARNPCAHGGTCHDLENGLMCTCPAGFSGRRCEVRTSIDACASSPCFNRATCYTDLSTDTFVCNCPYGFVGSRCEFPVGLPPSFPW

B1: h38H12.11 (antibody, V domains shown)
VH: EVQLVESGGGVVQPGRSLRLSCAASGFTFSNYGMYWVRQAPGKGLEWVAFISHGGGITYYRDSVKGRFTISRDNSKNTLYLQMNSLRAEDTAVYYCAALNWELGIDYWGQGTMVTVSS
VL: DIQMTQSPSSLSASVGDRVTITCRASEDIYSNLAWYQQKPGKAPKLLIYAANRLQDGVPSRFSGSGSGTDYTLTISSLQPEDFATYYCLQGSKFPLTFGQGTKLEIKR
notes: humanized IgG; also called VH.1b/VL.1b 38H12
As usually defined, the EC50 is the concentration giving half of the maximal effect. For orientation: Kd means a measure of binding affinity in units of concentration. Low values mean higher affinity, high ones lower affinity. With B1, the half-maximal effective concentration (EC50) in assay [1] was determined as 2.48 nM; in assay [4], 3.8 nM; in assay [5] it was 0.126 nM. The affinity in assay [2], expressed as Kd, was 0.554 nM. In assay [3], the “Notch Reporter Assay EC50” value was 0.657 nM.

B2: h38H12.12 (antibody, V domains shown)
VH: EVQLVESGGGVVQPGRSLRLSCAASGFTFSNYGMYWVRQAPGKGLEWVAFISHGGGITYYRDSVKGRFTISRDNSKNTLYLQMNSLRAEDTAVYYCAALNWELGIDYWGQGTMVTVSS
VL: EIVMTQSPATLSVSPGERATLSCRASEDIYSNLAWYQKKPGQSPRLLIYAANRLQDGVPARFSGSGSGTEYTLTISSLQSEDFAVYFCLQGSKFPLTFGQGTKLEIKR
notes: humanized IgG; also called VH.1b/VL.2a 38H12
Consider B2, for which the EC50 in assay [1] is 1.48 nM; in assay [4], 3.23 nM; in assay [5] it was 0.165 nM. The molecule further returned an equilibrium dissociation constant (Kd) in assay [2] of 0.819 nM. Besides, in assay [3], the “Notch Reporter Assay EC50” value came out at 1.06 nM.

B3: h38H12.7 (antibody, V domains shown)
VH: EVQLVESGGGVVQPGRSLRLSCAASGFTFSNYGMYWIRQAPGKGLEWVAFISHGGGITYYRDSVKGRFTISRDNSKSTLYLQMNSLRAEDTAVYHCAALNWELGIDYWGQGTMVTVSS
VL: DIQMTQSPSSLSASVGDRVTITCRASEDIYSNLAWYQQKPGKAPKLLIYAANRLQDGVPSRFSGSGSGTDYTLTISSLQPEDFATYYCLQGSKFPLTFGQGTKLEIKR
notes: humanized IgG; also called VH.1a/VL.1b 38H12
Consider B3, for which the EC50 turned out to be 19.1 nM in assay [1], 12.5 nM in assay [4] and 0.18 nM in assay [5]. Besides, the affinity in assay [2], expressed as Kd, was 0.34 nM. Also, the “Notch Reporter Assay EC50” value in assay [3] is 2.6 nM.

B4: h38H12.10 (antibody, V domains shown)
VH: EVQLVESGGGVVQPGRSLRLSCAASGFTFSNYGMYWVRQAPGKGLEWVAFISHGGGITYYRDSVKGRFTISRDNSKNTLYLQMNSLRAEDTAVYYCAALNWELGIDYWGQGTMVTVSS
VL: DIQMTQSPSSLSASVGDRVTITCRASEDIYSNLAWYQKKPGKSPKLLIYAANRLQDGVPSRFSGSGSGTDYTLTISSLQPEDFATYFCLQGSKFPLTFGQGTKLEIKR
notes: humanized IgG; also called VH.1b/VL.1a 38H12
Turning to B4, the figures for the concentration giving a half-maximal response (EC50) in assay [1], in assay [4] and in assay [5] were 2.49 nM, 3.9 nM and 0.123 nM, respectively. Besides, binding in assay [2] was characterised by a dissociation constant (Kd) of 0.578 nM. Besides, the “Notch Reporter Assay EC50” value in assay [3] came to 0.786 nM.

B5: h38H12.14 (antibody, V domains shown)
VH: EVQLVESGGGLVQPGGSLRLSCAASGFTFSNYGMYWIRQAPGKGLEWVAFISHGGGITYYRDSVKGRFTISRDNSKSTLYLQMNSLRAEDTAVYHCAALNWELGIDYWGQGTMVTVSS
VL: DIQMTQSPSSLSASVGDRVTITCRASEDIYSNLAWYQKKPGKSPKLLIYAANRLQDGVPSRFSGSGSGTDYTLTISSLQPEDFATYFCLQGSKFPLTFGQGTKLEIKR
notes: humanized IgG; also called VH.2a/VL.1a 38H12
As to B5, the half-maximal effective concentration (EC50) in assay [1] was determined as 1.04 nM; in assay [4] it was 5.84 nM; in assay [5] it was 0.146 nM. This molecule also gave a dissociation constant (Kd) in assay [2] of 0.303 nM. Moreover, in assay [3], the “Notch Reporter Assay EC50” value turned out to be 1.01 nM.

B6: h38H12.6 (antibody, V domains shown)
VH: EVQLVESGGGVVQPGRSLRLSCAASGFTFSNYGMYWIRQAPGKGLEWVAFISHGGGITYYRDSVKGRFTISRDNSKSTLYLQMNSLRAEDTAVYHCAALNWELGIDYWGQGTMVTVSS
VL: DIQMTQSPSSLSASVGDRVTITCRASEDIYSNLAWYQKKPGKSPKLLIYAANRLQDGVPSRFSGSGSGTDYTLTISSLQPEDFATYFCLQGSKFPLTFGQGTKLEIKR
notes: humanized IgG; also called VH.1a/VL.1a 38H12
On to B6, for which the EC50 in assay [1] stood at 12.3 nM; in assay [4] it was 27 nM; in assay [5] it was 0.158 nM. Also, the dissociation constant Kd in assay [2] is 0.434 nM. Further, the “Notch Reporter Assay EC50” value in assay [3] worked out at 6.32 nM.

B7: h38H12.5 (antibody, V domains shown)
VH: EVQLVESGGGVVQPGRSLRLSCAASGFTFSNYGMYWIRQAPGKGLEWVAFISHGGGITYYRDSVKGRFTISRDNSKSTLYLQMNSLRAEDTAVYHCAALNWELGIDYWGQGTMVTVSS
VL: DIQMTQSPSSLSASVGDRVTITCRASEDIYSNLAWYQQKPGKAPKLLIYAANRLQDGVPSRFSGSGSGTDFTLTISSLQPEDFATYYCLQGSKFPLTFGQGTKLEIKR
notes: humanized IgG; also called VH.1a/VL.1 38H12
With B7, the half-maximal effective concentration (EC50) was 77.2 nM in assay [1], 14.8 nM in assay [4] and 0.202 nM in assay [5]. The dissociation constant Kd in assay [2] is 0.401 nM. Besides, the “Notch Reporter Assay EC50” value in assay [3] was 7.31 nM.

B8: h38H12.9 (antibody, V domains shown)
VH: EVQLVESGGGVVQPGRSLRLSCAASGFTFSNYGMYWVRQAPGKGLEWVAFISHGGGITYYRDSVKGRFTISRDNSKNTLYLQMNSLRAEDTAVYYCAALNWELGIDYWGQGTMVTVSS
VL: DIQMTQSPSSLSASVGDRVTITCRASEDIYSNLAWYQQKPGKAPKLLIYAANRLQDGVPSRFSGSGSGTDFTLTISSLQPEDFATYYCLQGSKFPLTFGQGTKLEIKR
notes: humanized IgG; also called VH.1b/VL.1 38H12
B8: the half-maximal effective concentration (EC50) was 3.71 nM in assay [1], 4.16 nM in assay [4] and 0.116 nM in assay [5]. In addition, the equilibrium dissociation constant (Kd) in assay [2] came out at 0.986 nM. Also, the “Notch Reporter Assay EC50” value in assay [3] came to 1.44 nM.

B9: h38H12.1 (antibody, V domains shown)
VH: EVQLVESGGGVVQPGRSLRLSCAASGFTFSNYGMYWVRQAPGKGLEWVAFISHGGGITYYRDSVKGRFTISRDNSKNTLYLQMNSLRAEDTAVYYCARLNWELGIDYWGQGTMVTVSS
VL: DIQMTQSPSSLSASVGDRVTITCRASEDIYSNLAWYQQKPGKAPKLLIYAANRLQDGVPSRFSGSGSGTDFTLTISSLQPEDFATYYCLQGSKFPLTFGQGTKLEIKR
notes: humanized IgG; also called VH.1/VL.1 38H12
Take B9: the EC50 came out at 17.8 nM in assay [1] and 21.5 nM in assay [5].

B10: h38H12.15 (antibody, V domains shown)
VH: EVQLVESGGGLVQPGGSLRLSCAASGFTFSNYGMYWIRQAPGKGLEWVAFISHGGGITYYRDSVKGRFTISRDNSKSTLYLQMNSLRAEDTAVYHCAALNWELGIDYWGQGTMVTVSS
VL: DIQMTQSPSSLSASVGDRVTITCRASEDIYSNLAWYQQKPGKAPKLLIYAANRLQDGVPSRFSGSGSGTDYTLTISSLQPEDFATYYCLQGSKFPLTFGQGTKLEIKR
notes: humanized IgG; also called VH.2a/VL.1b 38H12
Turning to B10, the half-maximal effective concentration (EC50) in assay [1] came to 2.37 nM; in assay [4] it was 5.71 nM; in assay [5] it was 0.0904 nM. In assay [2], this molecule registered a Kd of 0.355 nM. Besides, the “Notch Reporter Assay EC50” value in assay [3] is 0.837 nM.

B11: h38H12.13 (antibody, V domains shown)
VH: EVQLVESGGGLVQPGGSLRLSCAASGFTFSNYGMYWIRQAPGKGLEWVAFISHGGGITYYRDSVKGRFTISRDNSKSTLYLQMNSLRAEDTAVYHCAALNWELGIDYWGQGTMVTVSS
VL: DIQMTQSPSSLSASVGDRVTITCRASEDIYSNLAWYQQKPGKAPKLLIYAANRLQDGVPSRFSGSGSGTDFTLTISSLQPEDFATYYCLQGSKFPLTFGQGTKLEIKR
notes: humanized IgG; also called VH.2a/VL.1 38H12
As to B11, the EC50 in assay [1] is 2.56 nM; in assay [4] it was 5.29 nM; in assay [5] it was 0.153 nM. This molecule also had a Kd in assay [2] of 0.507 nM. Also, the “Notch Reporter Assay EC50” value in assay [3] is 0.794 nM.
